Laboratory results reported in US20230173039A1.

Biological target: amyloid beta-protein 40 (Aβ40) (human) (UniProt P05067)

Aβ40 content by Tricine-SDS-PAGE with quantitative scanning (solvent control defined as 100%): 74.8%
Substance: plasminogen isolated and purified from plasma of a human donator (enzyme)
